We go through 1 protein from article PMC9499477, “The Inflammasome Activity of NLRP3 Is Independent of NEK7 in HEK293 Cells Co-Expressing ASC” (International Journal of Molecular Sciences, 2022).

The series concerns the molecule itself. Nature of the series: SEC + other: dynamic light scattering; analytical SEC: 100 µL of 1 mg/mL FLAG-tagged NLRP3ΔPYD on Superose 6 Increase 10/300, 20 mM HEPES pH 7.5, 200 mM NaCl, 1 mM MgCl2, 2 mM DTT, size by calibration standards; DLS at 10 °C in the same buffer; self-association.

B1: NLRP3ΔPYD carrying the double mutation F788E/F813E (NLRP3ΔPYD-F788E/F813E), FLAG-tagged (domain or fragment, human, UniProt Q96P20 126-1036, looked up)
chain: RISICKMKKDYRKKYRKYVRSRFQCIEDRNARLGESVSLNKRYTRLRLIKEHRSQQEREQELLAIGKTKTCESPVSPIKMELLFDPDDEHSEPVHTVVFQGAAGIGKTILARKMMLDWASGTLYQDRFDYLFYIHCREVSLVTQRSLGDLIMSCCPDPNPPIHKIVRKPSRILFLMDGFDELQGAFDEHIGPLCTDWQKAERGDILLSSLIRKKLLPEASLLITTRPVALEKLQHLLDHPRHVEILGFSEAKRKEYFFKYFSDEAQARAAFSLIQENEVLFTMCFIPLVCWIVCTGLKQQMESGKSLAQTSKTTTAVYVFFLSSLLQPRGGSQEHGLCAHLWGLCSLAADGIWNQKILFEESDLRNHGLQKADVSAFLRMNLFQKEVDCEKFYSFIHMTFQEFFAAMYYLLEEEKEGRTNVPGSRLKLPSRDVTVLLENYGKFEKGYLIFVVRFLFGLVNQERTSYLEKKLSCKISQQIRLELLKWIEVKAKAKKLQIQPSQLELFYCLYEMQEEDFVQRAMDYFPKIEINLSTRMDHMVSSFCIENCHRVESLSLGFLHNMPKEEEEEEKEGRHLDMVQCVLPSSSHAACSHGLVNSHLTSSFCRGLFSVLSTSQSLTELDLSDNSLGDPGMRVLCETLQHPGCNIRRLWLGRCGLSHECCEDISLVLSSNQKLVELDLSDNALGDEGIRLLCVGLKHLLCNLKKLWLVSCCLTSACCQDLASVLSTSHSLTRLYVGENALGDSGVAILCEKAKNPQCNLQKLGLVNSGLTSVCCSALSSVLSTNQNLTHLYLRGNTLGDKGIKLLCEGLLHPDCKLQVLELDNCNLTSHCCWDLSTLLTSSQSLRKLSLGNNDLGDLGVMMFCEVLKQQSCLLQNLGLSEMYFNYETKSALETLQEEKPELTVVFEPSW
notes: NLRP3, human, N-terminally truncated, amino acids 126-1036 (lacks the pyrin domain), with F788E and F813E; Made by megaprimer mutagenesis of the NLRP3ΔPYD construct; also called the mutant
What is called stoichiometry N is the number of molecules, sites or subunits per partner or assembly. For the protein B1, the “stoichiometry N” value was about 3.
